Consider three proteins from article PMC11719849, “Allosteric modulation of the Lon protease via ssDNA binding and local charge changes” (The Journal of Biological Chemistry, 2024).

Substrate in the series: Nc1ncnc2c1ncn2[C@@H]1O[C@H](COP(=O)(O)OP(=O)(O)OP(=O)(O)O)[C@@H](O)[C@H]1O
Put plainly: coupled NADH fluorescence ATPase assay. The format is biochemical, Caulobacter vibrioides. To be noted: no ssDNA, FITC-casein present, 0.1 μM Lon6, Mg2+, pH 8.0, 30 °C. The text has this: coupled NADH fluorescence ATPase assay on Lon

B1: Lon (Caulobacter vibrioides NA1000) (protein)
chain: MSELRTLPVLPLRDIVVFPHMVVPLFVGRDKSVRALEEVMRGDKQILLVTQKNSADDDPAPGDIFEVGVLATVLQLLKLPDGTVKVLVEGKARAAVVSFTDQESYYEAQIGEVSEDDGAGPEAEALSRAVVEQFENYVKLNKKVPPEALASIPQIAEPGKLADSIAAHLSVKIGDKQNLLEIFDVVKRLEKVFALMEGEISVLQVEKKIRSRVKRQMEKTQREYYLNEQMKAIQRELGDPDDARDELIDLEKRIKKTKLSKEARTKAESELKKLRNMSPMSAESTVVRNYLDWLLSIPWGKAKTKKIDLVESEGILDADHYGLEKVKERILEYLAVQARTNSLKGPILCLVGPPGVGKTSLGKSIAKATGREFVRMSLGGVRDEAEIRGHRRTYIGSMPGKVVQSMKKAKTTNAFVLLDEIDKMGSDYRGDPASALLEVLDPSQNSTFGDHYLEVDYDLSQVMFVTTANSLNMPQPLLDRMEIIRIPGYTEDEKLEIAKRHILPKLAKDHGLKPAEFIVPDKAIRDLIRYYTREAGVRSLERELGALARKTVRDLAREKVASITIDDERLAKYAGVKKYRYGETDEVDQVGIVTGLAWTEFGGDILTIEAVKMPGKGRMQITGNLKDVMKESIAAANSYVRSRALQFGIKPPVFEKTDVHIHVPDGATPKDGPSAGIAMALAMVSVLTGIPIRKDIAMTGEITLRGRVTAIGGLKEKLLAALRSGVKTVLIPQENEKDLADVPQTVKDGLEIIPVSTVDEVLKHALTGPLTPVEWNEAEEPITTSAKKDDGDSDAMLTH
notes: Caulobacter Lon from pBAD33-Lon, purified on hydroxyapatite and MonoQ, no tag mentioned
As to B1, the Km (Hill fit n 1.2, brackets 95% CI) is 92[67–135] μM.

B2: Lon (Caulobacter vibrioides NA1000; K301A/K303A/K305A/K306A) (protein)
chain: MSELRTLPVLPLRDIVVFPHMVVPLFVGRDKSVRALEEVMRGDKQILLVTQKNSADDDPAPGDIFEVGVLATVLQLLKLPDGTVKVLVEGKARAAVVSFTDQESYYEAQIGEVSEDDGAGPEAEALSRAVVEQFENYVKLNKKVPPEALASIPQIAEPGKLADSIAAHLSVKIGDKQNLLEIFDVVKRLEKVFALMEGEISVLQVEKKIRSRVKRQMEKTQREYYLNEQMKAIQRELGDPDDARDELIDLEKRIKKTKLSKEARTKAESELKKLRNMSPMSAESTVVRNYLDWLLSIPWGAAATAAIDLVESEGILDADHYGLEKVKERILEYLAVQARTNSLKGPILCLVGPPGVGKTSLGKSIAKATGREFVRMSLGGVRDEAEIRGHRRTYIGSMPGKVVQSMKKAKTTNAFVLLDEIDKMGSDYRGDPASALLEVLDPSQNSTFGDHYLEVDYDLSQVMFVTTANSLNMPQPLLDRMEIIRIPGYTEDEKLEIAKRHILPKLAKDHGLKPAEFIVPDKAIRDLIRYYTREAGVRSLERELGALARKTVRDLAREKVASITIDDERLAKYAGVKKYRYGETDEVDQVGIVTGLAWTEFGGDILTIEAVKMPGKGRMQITGNLKDVMKESIAAANSYVRSRALQFGIKPPVFEKTDVHIHVPDGATPKDGPSAGIAMALAMVSVLTGIPIRKDIAMTGEITLRGRVTAIGGLKEKLLAALRSGVKTVLIPQENEKDLADVPQTVKDGLEIIPVSTVDEVLKHALTGPLTPVEWNEAEEPITTSAKKDDGDSDAMLTH
notes: as for B1
As for B2, the Km (Lon4A, Hill fit n 1.2, brackets 95% CI) is 206[134–707] μM.

B3: Lon (Caulobacter vibrioides NA1000; K301E/K303E/K305E/K306E) (protein)
chain: MSELRTLPVLPLRDIVVFPHMVVPLFVGRDKSVRALEEVMRGDKQILLVTQKNSADDDPAPGDIFEVGVLATVLQLLKLPDGTVKVLVEGKARAAVVSFTDQESYYEAQIGEVSEDDGAGPEAEALSRAVVEQFENYVKLNKKVPPEALASIPQIAEPGKLADSIAAHLSVKIGDKQNLLEIFDVVKRLEKVFALMEGEISVLQVEKKIRSRVKRQMEKTQREYYLNEQMKAIQRELGDPDDARDELIDLEKRIKKTKLSKEARTKAESELKKLRNMSPMSAESTVVRNYLDWLLSIPWGEAETEEIDLVESEGILDADHYGLEKVKERILEYLAVQARTNSLKGPILCLVGPPGVGKTSLGKSIAKATGREFVRMSLGGVRDEAEIRGHRRTYIGSMPGKVVQSMKKAKTTNAFVLLDEIDKMGSDYRGDPASALLEVLDPSQNSTFGDHYLEVDYDLSQVMFVTTANSLNMPQPLLDRMEIIRIPGYTEDEKLEIAKRHILPKLAKDHGLKPAEFIVPDKAIRDLIRYYTREAGVRSLERELGALARKTVRDLAREKVASITIDDERLAKYAGVKKYRYGETDEVDQVGIVTGLAWTEFGGDILTIEAVKMPGKGRMQITGNLKDVMKESIAAANSYVRSRALQFGIKPPVFEKTDVHIHVPDGATPKDGPSAGIAMALAMVSVLTGIPIRKDIAMTGEITLRGRVTAIGGLKEKLLAALRSGVKTVLIPQENEKDLADVPQTVKDGLEIIPVSTVDEVLKHALTGPLTPVEWNEAEEPITTSAKKDDGDSDAMLTH
notes: as for B1
On to B3, for which the Km (Lon4E, Hill fit n 1.6, brackets 95% CI) is 28[23–28] μM.
